Laboratory results published in PMC7608808 (Science Advances, 2020).
Where two headings read alike, the source gives them in different places.

Key:
[1] = target: the molecule itself; experiment: cryo-EM structure
[2] = target: the molecule itself; experiment: cryo-EM structure; remark: listed apart in the source

Protein	binding result [1]	binding result [2]
SugC (natural protein) MAEIVLDRVTKSYPDGAGGVRAAVKEFSMTIADGEFIILVGPSGCGKSTTLNMIAGLEEITSGELRIGGERVNEKAPKDRDIAMVFQSYALYPHMTVRQNIAFPLTLAKVPKAEIAAKVEETAKILDLSELLDRKPGQLSGGQRQRVAMGRAIVRSPKAFLMDEPLSNLDAKLRVQMRAEISRLQDRLGTTTVYVTHDQTEAMTLGDRVVVMLAGEVQQIGTPDELYSSPANLFVAGFIGSPAMNFFPATRTDVGVRLPFGEVTLTPHMLDLLDKQARPENIIVGIRPEHIEDSALLDGYARIRALTFSVRADIVESLGADKYVHFTTEGAGAESAQLAELAADSGAGTNQFIARVSADSRVRTGEQIELAIDTTKLSIFDAATGLNLTRDITPTDPTEAAGPDAG	binds	
SugC (E164Q) (natural protein) MAEIVLDRVTKSYPDGAGGVRAAVKEFSMTIADGEFIILVGPSGCGKSTTLNMIAGLEEITSGELRIGGERVNEKAPKDRDIAMVFQSYALYPHMTVRQNIAFPLTLAKVPKAEIAAKVEETAKILDLSELLDRKPGQLSGGQRQRVAMGRAIVRSPKAFLMDQPLSNLDAKLRVQMRAEISRLQDRLGTTTVYVTHDQTEAMTLGDRVVVMLAGEVQQIGTPDELYSSPANLFVAGFIGSPAMNFFPATRTDVGVRLPFGEVTLTPHMLDLLDKQARPENIIVGIRPEHIEDSALLDGYARIRALTFSVRADIVESLGADKYVHFTTEGAGAESAQLAELAADSGAGTNQFIARVSADSRVRTGEQIELAIDTTKLSIFDAATGLNLTRDITPTDPTEAAGPDAG		binds
